Where a chain is given by its changes, count along the chain named. Where two headings read alike, the source gives them in different places.
Key:
scCD3εγ [1] = target: T1, scCD3εγ; assay: ELISA: plate-bound biotinylated scCD3εγ, His-tagged construct titrated without and with 100 nM soluble VEGF
T1 chain 1: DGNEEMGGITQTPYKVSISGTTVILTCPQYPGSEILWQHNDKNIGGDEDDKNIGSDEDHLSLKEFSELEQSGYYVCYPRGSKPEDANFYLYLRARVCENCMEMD
T1 chain 2: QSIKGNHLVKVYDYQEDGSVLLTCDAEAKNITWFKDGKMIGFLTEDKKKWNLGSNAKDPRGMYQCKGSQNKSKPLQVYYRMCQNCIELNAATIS
Protocol: (§1) The difference in binding of Switchdrug DARPins to scCD3εγ in presence and absence of VEGF was assessed. […] Said Switchdrug DARPins were mixed with a constant concentration of VEGF (100 nM) and tested for binding to scCD3εγ. […] The difference in EC50 of a construct in presence and absence of VEGF can be referred to as the “activation window”.
(§2) Switchdrug DARPins that were mixed with VEGF were titrated and pre-incubated for 1 day with VEGF in order to establish the thermodynamic equilibrium. These samples were loaded on the ELISA plate, incubated and washed, before the bound Switchdrug DARPins were detected as described above.

VEGF165 = target: T2, VEGF165 (UniProt P15692-4 27-191, biotinylated in the ELISA of Example 4 (site not stated)); assay: ELISA: plate-bound biotinylated VEGF165, His-tagged construct titrated, no soluble VEGF, anti-His-HRP detection
T2 construct: also called biotinylated VEGF165; soluble VEGF
T2 sequence (P15692 other isoform, or with tags, fused parts or gaps limits assumed): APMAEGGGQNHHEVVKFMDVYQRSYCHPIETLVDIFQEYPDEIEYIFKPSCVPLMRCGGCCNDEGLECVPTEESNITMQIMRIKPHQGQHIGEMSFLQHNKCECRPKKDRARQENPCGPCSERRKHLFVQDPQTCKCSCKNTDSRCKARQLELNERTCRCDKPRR

[2] = target: T3, Aminoglycoside phosphotransferase (APH) (Enterococcus faecalis (Streptococcus …, UniProt P0A3Y5 2-264))
T3 chain: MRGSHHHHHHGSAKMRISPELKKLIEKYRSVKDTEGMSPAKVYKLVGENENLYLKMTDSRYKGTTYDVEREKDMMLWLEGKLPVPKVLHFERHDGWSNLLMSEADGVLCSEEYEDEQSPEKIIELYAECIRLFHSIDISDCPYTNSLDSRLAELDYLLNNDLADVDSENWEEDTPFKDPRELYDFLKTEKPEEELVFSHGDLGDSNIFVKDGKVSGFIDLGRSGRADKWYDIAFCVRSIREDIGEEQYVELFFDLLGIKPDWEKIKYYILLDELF

scCD3εγ [3] = target: T1, scCD3εγ; assay: ELISA: plate-bound biotinylated scCD3εγ, His-tagged construct titrated without and with 100 nM soluble VEGF
Protocol: as §1, §2

scCD3εγ [4] = target: T1, scCD3εγ; assay: ELISA: plate-bound biotinylated scCD3εγ, His-tagged construct titrated in presence of 100 nM soluble VEGF
Protocol: as §1, §2

scCD3εγ [5] = target: T1, scCD3εγ; assay: as above
Protocol: as §1, §2

scCD3εγ [6] = target: T1, scCD3εγ; assay: ELISA: plate-bound biotinylated scCD3εγ, His-tagged construct titrated, no VEGF
Protocol: as §1, §2

[7] = target: T3, Aminoglycoside phosphotransferase (APH); assay: ELISA on APH, DARPin titrated
[8] = target: Maltose binding protein (MBP) (E. coli); assay: ELISA on MBP, DARPin titrated
scCD3εγ [9] = target: T1, scCD3εγ; assay: ELISA: plate-bound biotinylated scCD3εγ, His-tagged construct titrated without and with 100 nM soluble VEGF
Protocol: as §1, §2

scCD3εγ [10] = target: T1, scCD3εγ; assay: ELISA: plate-bound biotinylated scCD3εγ, His-tagged construct titrated in presence of 100 nM soluble VEGF
Protocol: as §1, §2

scCD3εγ [11] = target: T1, scCD3εγ; assay: as above
Protocol: as §1, §2

scCD3εγ [12] = target: T1, scCD3εγ; assay: ELISA: plate-bound biotinylated scCD3εγ, His-tagged construct titrated without and with 100 nM soluble VEGF
Protocol: as §1, §2

scCD3εγ [13] = target: T1, scCD3εγ; assay: ELISA: plate-bound biotinylated scCD3εγ, His-tagged construct titrated, no VEGF
Protocol: as §1, §2

B1: Switchdrug DARPin 17-A (designed binder)
chain: MRGSHHHHHHGSDLGKKLLQAARAGQLDEVRELLKAGADVNAKDQYGRTPLHLAAIKGHLEIVEVLLKAGADVNAKDSLGYTPLHLAAVEGPLEIVEVLLKAGADVNAKDAYGQTPLHIAAAWGHLEIVEVLLKAVADVNAQDKSGKTPADLAARAGHQDIAEVLQKAAGSPTPTPTTPTPTPTTPTPTPTGSDLGQKLLEAAWAGQDDEVRELLKAGADVNAKNSRGWTPLHTAAQTGHLEIFEVLLKAGADVNAKNDKRVTPLHLAAALGHLEIVEVLLKAGADVNARDSWGTTPADLAAKYGHQDIAEVLQKAAGSPTPTPTTPTPTPTTPTPTPTGSDLGKKLLQAARAGQLDEVRELLKAGADVNAKDSTGWTPLHLAAPWGHPEIVEVLLKAGADVNAKDFQGWTPLHLAAAAGHLEIVEVLLKAGADVNAKDWLGWTPLHLAASHGHLEIVEVLLKAGADVNAQDKSGKTPADLAARAGHQDIAEVLQKAA
notes: also called 2-in-1 DARPin17 in Format A
Which results are given for B1?
shift in EC50 upon addition of 100 nM VEGF (scCD3εγ [1]): ~90 fold; EC50 (read off the curve) (VEGF165): ~40 nM

B2: Parent DARPin no 2 (SEQ ID NO: 87) (designed binder)
chain: DLGKKLLEAARAGQDDEVRILMANGADVNANDWFGITPLHLVVNNGHLEIIEVLLKYAADVNASDKSGWTPLHLAAYRGHLEIVEVLLKYGADVNAMDYQGYTPLHLAAEDGHLEIVEVLLKYGADVNAQDKFGKTAFDISIDNGNEDLAEILQKLN
How did the Kd [2] turn out when B2 was run?
Its Kd is 147 nM.

B3: Switchdrug DARPin 15-3 (designed binder)
chain: MRGSHHHHHHGSDLDKKLLEAARAGQDDEVRILLKAGADVNAKDSTGWTPLHLAAPWGHPEIVEVLLKAGADVNAKDFQGWTPLHLAAAAGHLEIVEVLLKAGADVNAKDWLGWTPLHLAASHGHLEIVEVLLKAGADVNAQDKSGKTPADLAARAGHQDIAEVLQKAAGSPTPTPTTPTPTPTTPTPTPTGSDLGKKLLEAARAGQDDEVRELLKAGADVNAKDKDGYTPLHLAAREGHLEIVEVLLKAGADVNAKDKDGYTPLHLAAREGHLEIVEVLLKAGADVNAQDKSGKTPADLAADAGHEDIAEVLQKAAGSPTPTPTTPTPTPTTPTPTPTGSDLGQKLLEAAWAGQDDEVRELLKAGADVNAKNSRGWTPLHTAAQTGHLEIFEVLLKAGADVNAKNDKRVTPLHLAAALGHLEIVEVLLKAGADVNARDSWGTTPADLAAKYGHQDIAEVLQKAA
notes: also called 2-in-1 DARPin15 in Format 3
Which results are given for B3?
shift in EC50 upon addition of 100 nM VEGF (scCD3εγ [3]): ~54 fold; EC50 (read off the curve) (scCD3εγ [4]): ~8 nM

B4: Switchdrug DARPin 17-3 (designed binder)
chain: B3 chain with D15G, E20Q, D27L, I32E
notes: also called 2-in-1 DARPin17 in Format 3
What does the source list for B4?
shift in EC50 upon addition of 100 nM VEGF (scCD3εγ [3]): ~100 fold; EC50 (read off the curve) (scCD3εγ [4]): ~3 nM

B5: Switchdrug DARPin 18-3 (designed binder)
chain: MRGSHHHHHHGSDLDKKLLEAARAGQDDEVRILLKAGADVNAKDSTGWTPLHLAAPWGHPEIVEVLLKAGADVNAKDFQGWTPLHLAAAAGHLEIVEVLLKAGADVNAKDVYGWTPLHIAAASGHLEIVEVLLKAGADVNAKDWLGWTPLHLAASHGHLEIVEVLLKAGADVNAQDKSGKTPADLAARAGHQDIAEVLQKAAGSPTPTPTTPTPTPTTPTPTPTGSDLGKKLLEAARAGQDDEVRELLKAGADVNAKDKDGYTPLHLAAREGHLEIVEVLLKAGADVNAKDKDGYTPLHLAAREGHLEIVEVLLKAGADVNAQDKSGKTPADLAADAGHEDIAEVLQKAAGSPTPTPTTPTPTPTTPTPTPTGSDLGQKLLEAAWAGQDDEVRELLKAGADVNAKNSRGWTPLHTAAQTGHLEIFEVLLKAGADVNAKNDKRVTPLHLAAALGHLEIVEVLLKAGADVNARDSWGTTPADLAAKYGHQDIAEVLQKAA
notes: also called 2-in-1 DARPin18 in Format 3
With B5 as the binder, how does the “EC50 (read off the curve)” value (scCD3εγ [4]) read?
Its value is about 90 nM.

B6: Switchdrug DARPin 18-A (designed binder)
chain: MRGSHHHHHHGSDLGKKLLQAARAGQLDEVRELLKAGADVNAKDQYGRTPLHLAAIKGHLEIVEVLLKAGADVNAKDSLGYTPLHLAAVEGPLEIVEVLLKAGADVNAKDAYGQTPLHIAAAWGHLEIVEVLLKAVADVNAQDKSGKTPADLAARAGHQDIAEVLQKAAGSPTPTPTTPTPTPTTPTPTPTGSDLGQKLLEAAWAGQDDEVRELLKAGADVNAKNSRGWTPLHTAAQTGHLEIFEVLLKAGADVNAKNDKRVTPLHLAAALGHLEIVEVLLKAGADVNARDSWGTTPADLAAKYGHQDIAEVLQKAAGSPTPTPTTPTPTPTTPTPTPTGSDLDKKLLEAARAGQDDEVRILLKAGADVNAKDSTGWTPLHLAAPWGHPEIVEVLLKAGADVNAKDFQGWTPLHLAAAAGHLEIVEVLLKAGADVNAKDVYGWTPLHIAAASGHLEIVEVLLKAGADVNAKDWLGWTPLHLAASHGHLEIVEVLLKAGADVNAQDKSGKTPADLAARAGHQDIAEVLQKAA
notes: also called 2-in-1 DARPin18 in Format A
B6 was tested. Which “shift in EC50 upon addition of 100 nM VEGF” value (scCD3εγ [1]) did it give?
The value was about 2 fold.

What about the “EC50 (read off the curve)” value (VEGF165) of the same binder?
Its value is about 90 nM.

And the “EC50 (read off the curve)” value (scCD3εγ [5])?
The value was about 90 nM.

And the “EC50 (read off the curve)” value (scCD3εγ [6])?
Its value is about 200 nM.

B7: 2-in-1 DARPin 21 (SEQ ID NO: 90) (designed binder)
chain: DLGKKLLEAARAGQDDEVRILMANGADVNANDWFGITPLHLVVNNGHLEIIEVLLKYAADVNASDKSGWTPLHLAAYRGHLEIVEVLLKYGADVNAMDYQGYTPLHLAAEDGHLEIVEVLLKYGADVNAKDKFGKTPLHIAARAGHLEIVEVLLKAGADVNAADNTGTTPLHLAAYSGHLEIVEVLLKHGADVDASDVFGYTPLHLAAYWGHLEIVEVLLKNGADVNAMDSDGMTPLHLAAKWGYLEIVEVLLKHGADVNAQDKFGKTAFDISIDNGNEDLAEILQKAA
What does the source list for B7?
EC50 (read off the curve) [7]: ~20 nM; Kd [2]: 66.9 nM; EC50 (read off the curve) [8]: ~100 nM

B8: 2-in-1 DARPin 22 (SEQ ID NO: 91) (designed binder)
chain: B7 chain with K135R, A144N
Which results are given for B8?
EC50 (read off the curve) [7]: ~10 nM; Kd [2]: 52.6 nM

B9: Switchdrug DARPin 18-B (designed binder)
chain: MRGSHHHHHHGSDLDKKLLEAARAGQDDEVRILLKAGADVNAKDSTGWTPLHLAAPWGHPEIVEVLLKAGADVNAKDFQGWTPLHLAAAAGHLEIVEVLLKAGADVNAKDVYGWTPLHIAAASGHLEIVEVLLKAGADVNAKDWLGWTPLHLAASHGHLEIVEVLLKAGADVNAQDKSGKTPADLAARAGHQDIAEVLQKAAGSPTPTPTTPTPTPTTPTPTPTGSDLGKKLLQAARAGQLDEVRELLKAGADVNAKDQYGRTPLHLAAIKGHLEIVEVLLKAGADVNAKDSLGYTPLHLAAVEGPLEIVEVLLKAGADVNAKDAYGQTPLHIAAAWGHLEIVEVLLKAVADVNAQDKSGKTPADLAARAGHQDIAEVLQKAAGSPTPTPTTPTPTPTTPTPTPTGSDLGQKLLEAAWAGQDDEVRELLKAGADVNAKNSRGWTPLHTAAQTGHLEIFEVLLKAGADVNAKNDKRVTPLHLAAALGHLEIVEVLLKAGADVNARDSWGTTPADLAAKYGHQDIAEVLQKAA
notes: also called 2-in-1 DARPin18 in Format B
What does the source list for B9?
shift in EC50 upon addition of 100 nM VEGF (scCD3εγ [9]): ~19 fold; EC50 (read off the curve) (VEGF165): ~20 nM; EC50 (read off the curve) (scCD3εγ [10]): ~50 nM

B10: Switchdrug DARPin 18-1 (designed binder)
chain: MRGSHHHHHHGSDLGQKLLEAAWAGQDDEVRELLKAGADVNAKNSRGWTPLHTAAQTGHLEIFEVLLKAGADVNAKNDKRVTPLHLAAALGHLEIVEVLLKAGADVNARDSWGTTPADLAAKYGHQDIAEVLQKAAGSPTPTPTTPTPTPTTPTPTPTGSDLDKKLLEAARAGQDDEVRILLKAGADVNAKDSTGWTPLHLAAPWGHPEIVEVLLKAGADVNAKDFQGWTPLHLAAAAGHLEIVEVLLKAGADVNAKDVYGWTPLHIAAASGHLEIVEVLLKAGADVNAKDWLGWTPLHLAASHGHLEIVEVLLKAGADVNAQDKSGKTPADLAARAGHQDIAEVLQKAA
notes: also called 2-in-1 DARPin18 in Format 1
What does the source list for B10?
EC50 (read off the curve) (scCD3εγ [11]): ~40 nM; shift in EC50 upon addition of 100 nM VEGF (scCD3εγ [12]): ~3 fold; EC50 (read off the curve) (scCD3εγ [13]): ~100 nM

— patent publication US20250042957A1 (Molecular Partners, published 2025)
